Results published in patent publication EP4725963A1.

Target: human NPR1 full-length protein overexpressed on CHO-K1 cells (human) (UniProt P16066)
Assay: cell-based or functional assay

Sequence of human NPR1 full-length protein overexpressed on CHO-K1 cells (human) (P16066 33-1061): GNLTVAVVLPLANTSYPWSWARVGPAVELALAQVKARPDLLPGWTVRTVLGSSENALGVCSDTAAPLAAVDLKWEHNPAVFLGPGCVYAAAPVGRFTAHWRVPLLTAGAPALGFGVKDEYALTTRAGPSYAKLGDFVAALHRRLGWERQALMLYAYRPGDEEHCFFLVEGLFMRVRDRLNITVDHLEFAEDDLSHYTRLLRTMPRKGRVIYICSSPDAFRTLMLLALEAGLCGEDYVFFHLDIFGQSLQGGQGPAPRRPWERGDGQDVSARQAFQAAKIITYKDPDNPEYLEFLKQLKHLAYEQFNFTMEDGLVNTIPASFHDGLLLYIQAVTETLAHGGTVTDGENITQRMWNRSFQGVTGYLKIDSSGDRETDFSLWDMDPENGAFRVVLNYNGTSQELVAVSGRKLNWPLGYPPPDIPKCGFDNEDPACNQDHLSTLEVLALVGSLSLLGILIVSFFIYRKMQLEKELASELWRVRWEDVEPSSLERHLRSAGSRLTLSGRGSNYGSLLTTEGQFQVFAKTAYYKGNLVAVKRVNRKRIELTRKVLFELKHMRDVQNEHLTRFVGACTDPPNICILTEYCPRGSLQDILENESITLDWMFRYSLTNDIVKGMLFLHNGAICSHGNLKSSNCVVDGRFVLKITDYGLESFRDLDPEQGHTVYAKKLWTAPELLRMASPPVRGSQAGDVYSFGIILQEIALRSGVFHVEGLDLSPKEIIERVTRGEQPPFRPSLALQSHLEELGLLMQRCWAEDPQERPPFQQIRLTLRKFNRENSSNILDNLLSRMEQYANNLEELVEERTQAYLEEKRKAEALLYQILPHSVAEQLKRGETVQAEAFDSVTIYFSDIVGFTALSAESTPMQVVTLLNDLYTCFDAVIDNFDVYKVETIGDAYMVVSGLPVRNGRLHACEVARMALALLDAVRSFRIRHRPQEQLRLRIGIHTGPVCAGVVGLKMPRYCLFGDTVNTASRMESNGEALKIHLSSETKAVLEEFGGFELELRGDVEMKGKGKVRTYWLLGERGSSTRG

Ratio (without ANP) of NPR1 antigens remaining on the cell surface after endocytosis to the initial number, 10 min, 20 µg/mL: 0.56 | Ratio (without ANP) of NPR1 antigens remaining on the cell surface after endocytosis to the initial number, 1 h, 20 µg/mL: 0.46 | Ratio (without ANP) of NPR1 antigens remaining on the cell surface after endocytosis to the initial number, 7 hrs, 20 µg/mL: 0.3 | Ratio (without ANP) of NPR1 antigens remaining on the cell surface after endocytosis to the initial number, 24 hrs, 20 µg/mL: 0.39 | Sum of signal changes (cGMP production in cells before and after endocytosis treatment): 1.08
Substance: REGN-5381 (antibody)
